Measured values from the Human Domainome abundance scans (Beltran et al. 2025).
± gives the uncertainty stated by the source.

B1: POU domain, class 3, transcription factor 3, residues 408 to 463; numbered along this chain, P20264 (parent)
chain: KKRTSIEVSVKGALESHFLKCPKPSAQEITNLADSLQLEKEVVRVWFCNRRQKEKR

Variants of: B1
Assay: abundance fitness (aPCA) (normalised: wild type 0, dead -1); higher = more abundant; growth selection in yeast, the domain comes from the species named
Details: Homo sapiens

Abundance fitness, by site and new letter:
L19: C -0.138 ± 0.091 | P -1.09 ± 0.19 | F -0.346 ± 0.11 | Y -0.288 ± 0.15 | S -0.047 ± 0.069 | R -0.024 ± 0.059 | A -0.029 ± 0.086 | E -0.086 ± 0.1 | D -0.191 ± 0.11 | Q 0.002 ± 0.1 | K -0.057 ± 0.091 | N 0.014 ± 0.13 | H -0.173 ± 0.097 | W -0.339 ± 0.074 | G -0.238 ± 0.062 | T -0.155 ± 0.093 | M 0.033 ± 0.099 | V -0.075 ± 0.066
H17: L -0.188 ± 0.081 | Q -0.134 ± 0.12 | T -0.234 ± 0.096 | R -0.444 ± 0.072 | Y 0.041 ± 0.11 | F -0.104 ± 0.15 | M -0.147 ± 0.1 | A -0.055 ± 0.081 | S -0.039 ± 0.085 | G -0.683 ± 0.074 | W -0.048 ± 0.08 | V -0.069 ± 0.07 | N -0.189 ± 0.16 | C -0.201 ± 0.11 | E -0.176 ± 0.089 | I -0.219 ± 0.14 | P -0.807 ± 0.16
A13: Y -0.17 ± 0.14
S16: R -0.011 ± 0.063 | N -0.044 ± 0.17 | D 0.026 ± 0.11 | H -0.287 ± 0.17 | W -0.502 ± 0.088 | A -0.026 ± 0.089 | K 0.036 ± 0.12 | F -0.232 ± 0.099 | M -0.076 ± 0.12 | L -0.106 ± 0.084 | C -0.086 ± 0.12 | E 0.006 ± 0.091 | V -0.261 ± 0.075 | I -0.361 ± 0.17 | G -0.059 ± 0.065 | Q 0.012 ± 0.14 | Y -0.004 ± 0.14 | P -0.441 ± 0.13 | T -0.067 ± 0.13
P22: A -0.121 ± 0.2 | Y -0.383 ± 0.47 | G -0.19 ± 0.11 | L -0.732 ± 0.41 | H -0.448 ± 0.36 | R -0.398 ± 0.14 | S -0.35 ± 0.17 | I -0.572 ± 0.23 | K -0.432 ± 0.48 | V -0.641 ± 0.18
A33: P -0.909 ± 0.15 | F -0.941 ± 0.17 | D -0.863 ± 0.13 | S -0.052 ± 0.078 | L -0.889 ± 0.098 | V -0.955 ± 0.11 | Q -0.931 ± 0.18 | T -0.939 ± 0.16 | W -0.878 ± 0.12 | Y -0.836 ± 0.18 | N -0.941 ± 0.26 | C -0.515 ± 0.11 | G -0.623 ± 0.079 | R -0.989 ± 0.087 | E -0.964 ± 0.21 | H -0.513 ± 0.22 | K -0.981 ± 0.19 | M -0.823 ± 0.13 | I -0.864 ± 0.17
L32: T -0.78 ± 0.12 | D -1.03 ± 0.14 | K -1.06 ± 0.2 | H -0.652 ± 0.16 | A -0.92 ± 0.15 | I 0.187 ± 0.17 | G -0.88 ± 0.1 | S -0.95 ± 0.13 | N -0.897 ± 0.19 | C -1.07 ± 0.41 | W -0.967 ± 0.17 | F -0.556 ± 0.16 | R -0.758 ± 0.091 | V -0.245 ± 0.067 | P -0.935 ± 0.19 | Q -0.923 ± 0.16 | E -0.782 ± 0.13
A26: D -0.004 ± 0.11 | W -0.155 ± 0.083 | F -0.297 ± 0.15 | M -0.063 ± 0.1 | E 0.031 ± 0.087 | V -0.1 ± 0.069 | C -0.102 ± 0.087 | T -0.081 ± 0.1 | G -0.086 ± 0.06 | L -0.005 ± 0.074 | Y -0.087 ± 0.13 | R -0.073 ± 0.064 | P 0.039 ± 0.13 | S -0.168 ± 0.08 | H 0.071 ± 0.17 | Q -0.024 ± 0.11
N31: S -0.033 ± 0.038 | Y -0.009 ± 0.098
K23: P -0.724 ± 0.2 | H -0.127 ± 0.14 | R -0.049 ± 0.063 | Q -0.192 ± 0.12 | N 0.248 ± 0.11 | I -0.065 ± 0.12 | W -0.084 ± 0.077 | S 0.033 ± 0.069 | F -0.034 ± 0.12 | V -0.082 ± 0.066 | D 0.114 ± 0.099 | A -0.001 ± 0.077 | L -0.057 ± 0.075 | T -0.052 ± 0.1 | G -0.252 ± 0.063 | M -0.031 ± 0.1 | E -0.028 ± 0.072 | Y -0.05 ± 0.11
E28: R -0.456 ± 0.069 | F -0.573 ± 0.15 | S -0.45 ± 0.09 | N -0.455 ± 0.19 | Y -0.048 ± 0.18 | C -0.368 ± 0.12 | T -0.251 ± 0.13 | D -0.256 ± 0.15 | Q -0.145 ± 0.15 | K -0.538 ± 0.13 | I -0.223 ± 0.26 | W -0.59 ± 0.1 | G -0.237 ± 0.067 | H -0.554 ± 0.25 | A -0.118 ± 0.083 | P -0.838 ± 0.13 | V -0.442 ± 0.084
C21: D -0.094 ± 0.12 | S 0.041 ± 0.086 | K -0.408 ± 0.12 | L -0.611 ± 0.088 | V -0.249 ± 0.069 | T -0.094 ± 0.1 | Y -0.383 ± 0.12 | G -0.468 ± 0.062 | P -0.719 ± 0.13 | H -0.031 ± 0.19 | M -0.314 ± 0.1 | Q 0.084 ± 0.11 | F -0.407 ± 0.16 | R -0.501 ± 0.063 | E 0.048 ± 0.089 | I -0.73 ± 0.24
F18: Y 0.026 ± 0.12 | T -0.922 ± 0.14 | N -1.18 ± 0.24 | K -0.925 ± 0.15 | W -0.5 ± 0.096 | H -0.932 ± 0.21 | I -0.973 ± 0.2 | V -0.859 ± 0.077 | D -0.568 ± 0.16 | E -0.875 ± 0.12 | C -0.935 ± 0.16 | A -0.84 ± 0.091 | R -0.935 ± 0.097 | L -1.01 ± 0.11 | Q -0.703 ± 0.2 | S -0.902 ± 0.11
S35: K 0.162 ± 0.12 | R 0.117 ± 0.076 | D -0.158 ± 0.13 | W -0.228 ± 0.12 | C -0.079 ± 0.14 | H -0.048 ± 0.16 | L -0.083 ± 0.076 | G -0.194 ± 0.077 | I -0.122 ± 0.11 | M -0.133 ± 0.11 | N -0.078 ± 0.13 | F -0.177 ± 0.098 | E -0.032 ± 0.11 | A -0.019 ± 0.079 | Q -0.04 ± 0.13 | T -0.07 ± 0.098 | P -0.76 ± 0.14
T30: C -0.037 ± 0.12 | D 0.048 ± 0.1 | E -0.107 ± 0.11 | Q 0.079 ± 0.11 | N -0.095 ± 0.099 | A -0.028 ± 0.077 | M -0.057 ± 0.095 | G -0.072 ± 0.062 | V -0.1 ± 0.064 | R -0.17 ± 0.066 | P -0.847 ± 0.14 | I -0.035 ± 0.099 | S 0.031 ± 0.071 | H -0.153 ± 0.12 | F -0.082 ± 0.12 | W -0.327 ± 0.095 | Y -0.337 ± 0.13 | K -0.044 ± 0.1
E15: V -0.698 ± 0.21 | A -0.858 ± 0.28 | G -1.02 ± 0.23 | W -0.593 ± 0.23 | N -1.02 ± 0.41 | K -0.582 ± 0.3 | L -0.599 ± 0.19 | S -1 ± 0.3 | R -1.03 ± 0.24 | M -0.713 ± 0.4 | D -0.753 ± 0.42
L14: A -0.8 ± 0.1 | F -0.899 ± 0.29 | Q -0.942 ± 0.17 | E -1.11 ± 0.16 | T -0.839 ± 0.12 | I -0.45 ± 0.2 | P -1 ± 0.18 | S -0.87 ± 0.097 | N -1.01 ± 0.18 | D -0.697 ± 0.22 | W -1.01 ± 0.12 | Y -0.815 ± 0.18 | C -0.662 ± 0.12 | G -0.958 ± 0.083 | V -0.899 ± 0.1
Q27: R -0.055 ± 0.058 | N 0.098 ± 0.19 | F -0.27 ± 0.13 | G -0.076 ± 0.067 | T -0.151 ± 0.11 | A -0.049 ± 0.081 | Y -0.195 ± 0.15 | P -0.279 ± 0.084 | V -0.11 ± 0.07 | M -0.194 ± 0.1 | H -0.123 ± 0.12 | C -0.171 ± 0.1 | S -0.098 ± 0.073 | K -0.095 ± 0.11 | W -0.222 ± 0.076 | I -0.312 ± 0.16 | E -0.036 ± 0.11 | L -0.091 ± 0.068
I29: S -0.781 ± 0.15 | L -0.038 ± 0.08 | R -0.859 ± 0.097 | F -0.832 ± 0.2 | H -0.997 ± 0.41 | V -0.204 ± 0.08 | M -0.028 ± 0.11 | Q -0.822 ± 0.15 | K -1.07 ± 0.17 | T -0.849 ± 0.19 | Y -0.889 ± 0.23 | N -0.982 ± 0.26 | G -0.899 ± 0.099 | E -0.301 ± 0.11 | D -0.871 ± 0.24 | P -0.871 ± 0.21 | W -0.903 ± 0.14 | C -0.574 ± 0.14
D34: N 0.143 ± 0.12
P24: D -0.802 ± 0.17 | S -0.874 ± 0.13 | K -0.93 ± 0.23 | M -0.867 ± 0.16 | C -0.83 ± 0.19 | Q -0.842 ± 0.2 | E -0.871 ± 0.17 | L -0.881 ± 0.099 | V -0.792 ± 0.093 | F -0.827 ± 0.22 | A -0.778 ± 0.14 | T -0.825 ± 0.24 | G -1.05 ± 0.11 | R -0.918 ± 0.094 | I -0.731 ± 0.22
S25: L -0.559 ± 0.078 | T -0.075 ± 0.11 | V -0.45 ± 0.081 | F -0.773 ± 0.25 | N -0.092 ± 0.16 | M -0.681 ± 0.15 | C -0.185 ± 0.11 | H -0.593 ± 0.17 | K -0.565 ± 0.11 | Q -0.537 ± 0.11 | I -0.84 ± 0.41 | W -0.885 ± 0.11 | G -0.172 ± 0.063 | P -0.373 ± 0.14 | Y -0.66 ± 0.13 | R -0.398 ± 0.065 | E -0.287 ± 0.11
K20: S -0.233 ± 0.078 | V -0.127 ± 0.089 | N -0.109 ± 0.11 | M -0.187 ± 0.12 | I -0.191 ± 0.1 | A -0.218 ± 0.079 | F -0.438 ± 0.12 | H -0.279 ± 0.14 | Y -0.335 ± 0.11 | D -0.197 ± 0.15 | G -0.366 ± 0.079 | Q 0.054 ± 0.14 | T -0.256 ± 0.1 | P -0.912 ± 0.17 | R -0.05 ± 0.075 | C -0.465 ± 0.14 | L -0.195 ± 0.072 | W -0.421 ± 0.097
